Several values for one entry are separate records, joined by “and”; a condition that tells them apart may be missing. Identical values can stand only once.
B1: VHH ENB-1A4 (VHH)
VHH: EVQLVESGGGLVQAGGSLRLSCAASGSIFSTNVMGWYRQAPGKQREFVAGITIGGTARYPDSVKGRFTISRDNTQNTVYLQMNNLKPEDTAVYYCNAVLPSDQRRWSWGQGTQVTVSS
B2: VHH ENB-1D11 (VHH)
VHH: EVQLVESGGGLVQTGGSLRLSCTASGTIDMTYGLIWYRQAPGKERELVASIRRDGRTNYADSVKGRFTISIDNAKNSIHLQMNSLKPDDTARYYCNSPYHALWGQGTQVTVSS

Biological target: recombinant NetB (wild type NetB) toxin of C. perfringens (Clostridium perfringens)
Assay: cell-based or functional assay

Binder | lowest VHH concentration neutralizing NetB haemolysis
B1 | 1.25 µM and 0.625 µM
B2 | 1.25 µM and 0.625 µM
